Assay [1] addresses TMEM219 on human beta cells (Betalox-5) and human islets (human) (UniProt Q86XT9). Description: cell-based or functional assay.
For assay [2], the target named is T1, Human Ecto-TMEM219 (human, UniProt Q86XT9 43-204).
T1 construct: also called hEcto-TMEM
T1 sequence: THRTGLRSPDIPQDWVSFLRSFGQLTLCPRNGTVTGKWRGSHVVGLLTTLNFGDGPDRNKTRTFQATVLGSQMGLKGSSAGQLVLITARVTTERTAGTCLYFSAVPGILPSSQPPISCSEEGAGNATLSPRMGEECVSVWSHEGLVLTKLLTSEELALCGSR
In words: ELISA, ectoTMEM coated at 5 µg/ml, antibody dilution series, anti-human-Fc HRP detection. The method, then:
The binding activity of the purified IgG4 (TC03, TC04, TC05) to the recombinant ectoTMEM protein was measured by ELISA. In brief, ectoTMEM was diluted in PBS to 5 μg/ml and coated onto 96-well ELISA plates (100 μl/well) for 1 h at RT. After blocking and washing of the plates, an antibody dilution series was added to the plates and incubated for 1 h at RT. After washing of the plates, bound antibodies were detected via a secondary anti-human-Fc HRP-conjugated antibody. After another washing step, TMB reaction was performed, stopped with sulfuric acid and absorbance was measured. Based on the absorbance readings, an EC50 of the saturating antibodies was calculated.
(In an ELISA, binding on a coated surface is turned into a signal by an enzyme label.)

The target of a further assay is T2, Murine Ecto-TMEM219 (murine, UniProt Q9D123 43-203).
T2 construct: also called mEcto-TMEM
T2 sequence: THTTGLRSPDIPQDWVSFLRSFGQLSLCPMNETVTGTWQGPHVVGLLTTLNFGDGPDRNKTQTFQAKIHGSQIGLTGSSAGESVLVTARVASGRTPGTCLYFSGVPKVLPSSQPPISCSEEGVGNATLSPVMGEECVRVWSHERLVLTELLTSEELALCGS
In words: Octet BLI, antibody captured via Fc on biosensor, antigen at 150 nM. The method, then:
(§1) The binding affinity measurements were performed using an Octet instrument (Octet BMIA), which is a Biolayer Interferometry (BLI) platform based on Biomolecular Interaction Analysis. To establish the assay, the target monoclonal antibody (30 μg/ml in PBS) was immobilized via Fc on the Anti-Mouse IgG Fc Capture (AMC) or Anti-Human IgG Fc Capture (AMC) biosensors and the interaction with the antigen, human and murine Ecto-TMEM219 (Genescript's customized protein service) at 150 nM was measured.
A general note: BLI is a label-free optical method that tracks binding on a fibre tip over time.

The target in assay [3] is T1, Human Ecto-TMEM219. The assay is described as above. The method, then:
as §1

Chain of TMEM219 on human beta cells (Betalox-5) and human islets (human) (Q86XT9 39-240): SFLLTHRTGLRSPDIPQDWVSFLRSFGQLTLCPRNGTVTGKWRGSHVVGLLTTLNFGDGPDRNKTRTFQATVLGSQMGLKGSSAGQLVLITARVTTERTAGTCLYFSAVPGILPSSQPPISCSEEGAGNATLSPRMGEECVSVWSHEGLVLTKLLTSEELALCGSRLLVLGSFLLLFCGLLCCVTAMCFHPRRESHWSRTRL

In assay [1], “Recombinant human IGFBP3 (from UniProt P17936 28-291) (ligand)” yielded a CASP8 mRNA upregulation in beta cells cultured with IGFBP3 of 70% and a cell death of beta cells challenged with IGFBP3 of 30%.

B1: TC05 (antibody, human IgG4, V domains shown)
VH: QIQLVQSGAEVKQPGASVSVSCAASGYTFTSYGISWVRQAPGQGLEWMGWISAYNGNTNYAQKLQGRVTMTTDTSTSTAYMELSSLRSDDTAVYYCARWGRWLAHDYWGQGTLVTVSS
VL: QAVLTQPPSVSVSPGQTASITCSGDKLGNKNAYWYQQKPGQSPVLVMYQSTRRPSGIPERFSASNSGNTATLTISGTQAMDEADYYCQAWDSSSGWEVFGGGTKLTVL
Regarding B1, the midpoint of the response with Human Ecto-TMEM219 [2], the EC50, lay at 0.0791 µg/mL.

B2: TC01 (antibody, V domains shown)
VH: QIQLVQSGAEVKKPGASVKVSCKASGYTFTSYGISWVRQAPGQGLEWMGWISAYNGNTNYAQKLQGRVTMTTDTSTSTAYMELRSLRSDDTAVYYCARWGRWLAHDYWGQGTLVTVSS
VL: QAVLTQPPSVSVSPGQTASITCSGDKLGNKNAYWYQQKPGQSPVLVMYQSTRRPSGIPERFSASNSGNTATLTISGTQAMDEADYYCQAWDSSSGWEVFGGGTKLTVL
notes: also called anti-TMEM219 TC01; TCO1
As to B2, the Kd (commonly the concentration at which binding is half-saturated) in the assay with Murine Ecto-TMEM219 was found to be 30 nM; with Human Ecto-TMEM219 [3], 20 nM.

B3: TC04 (antibody, human IgG4, V domains shown)
VH: QIQLVQSGAEVKQPGASVSVSCAASGYTFTSYGISWVRQAPGQGLEWMGWISAYNGNTNYAQKLQGRVTMTTDTSTSTAYMELSSLRSDDTAVYYCARWGRWLAHDYWGQGTLVTVSS
VL: QAVLTQPPSVSVSPGQTASITCSGDKLGNKNAYWYQQKPGQSPVLVMYQSTRRPSGIPERFSASNSGNTATLTISGTQAEDEADYYCQAWDSSSGWEVFGGGTKLTVL
On to B3, for which a half-maximal effect with Human Ecto-TMEM219 [2] (EC50) was put at 0.0898 µg/mL.

B4: TC03 (antibody, human IgG4, V domains shown)
VH: QIQLVQSGAEVKQPGASVSVSCAASGYTFTSYGISWVRQAPGQGLEWMGWISAYNGNTNYAQKLQGRVTMTTDTSTSTAYMELSSLRSDDTAVYYCARWGRWLAHDYWGQGTLVTVSS
VL: QAVLTQPPSVSVSPGQTASITCSGDKLGNKNAYWYQQKPGQSPVLVMYQSTRRPSGIPERFSASNSGNTATLTISGTQAMDEADYYCQAWLSSSGWEVFGGGTKLTVL
In the case of B4, the EC50 (as a rule, the concentration that produces a half-maximal response) with Human Ecto-TMEM219 [2] stood at 0.0647 µg/mL.

B5: TE10 (antibody, V domains shown)
VH: QVQLVESGGGVVQPGRSLRLSCAASGFTFSSYGMHWVRQAPGKGLEWVAVIWYDGSNKYYADSVKGRFTISRDNSKNTLYLQMNSLRAEDTAVYYCAREGRGMDVWGQGTTVTVSS
VL: QPVLTQSSSASASLGSSVKLTCTLSSGHSSYIIAWHQQQPGKAPRYLMKLEGSGSYNKGSGVPDRFSGSSSGADRYLTISNLQFEDEADYYCETWDSNTPHAVFGGGTQLTAL
B5 had a Kd in the assay with Human Ecto-TMEM219 [3] of less than 0.001 nM.

B6: TM1 (antibody, V domains shown)
VH: QVQLVESGGGVVQPGRSLRLSCAASGFTFSTYGIHWVRQAPGKGLEWVAVIWYDGYNKYYVDSVKGRFTISRDNSENTVYLQMNSLRTEDTAVYYCAREGWFGKLLSALDIWGQGTMVTVSS
VL: VIQMTQSPSSLSASVGDRVTITCRASQGIRNDLGWYLQKPGKAPELLIYPASSLQSGVPSRFSGSGSGTDFTLTISSLQPEDFATYYCLQDYNYPFTFGQGTKLEIK
notes: constant regions are not tied to it; also called anti-TMEM219 TM1
As for B6, the Kd with Murine Ecto-TMEM219 and with Human Ecto-TMEM219 [3] was less than 0.001 nM each time.

(Values after patent US20260116984A1 (ENTHERA S R L, published 2026).)
